Test results taken from publication PMC8245568, “Xyloglucan processing machinery in Xanthomonas pathogens and its role in the transcriptional activation of virulence factors” (Nature Communications, 2021).

B1: XacAfc95, GH95 α-1,2-L-fucosidase encoded by XAC1774 of Xanthomonas citri pv. citri 306 (enzyme)
chain: not shown
notes: A signal peptide was probably left out of the construct (surmise); also called GH95 α-L-fucosidase; source: E. coli, purified (two chromatographic steps)
B2: XacGalD, GH35 β-galactosidase encoded by XAC1772 of Xanthomonas citri pv. citri 306, wild type (enzyme)
chain: not shown
notes: source: E. coli, purified (two chromatographic steps)

Experiments:
[1] = molecular target: the molecule itself; test: SAXS; protein samples at 1, 3, 5 and 10 mg mL^-1; D01A-SAXS2 beamline (LNLS); molecular weight by SAXSMoW
[2] = molecular target: the molecule itself; test: SEC-MALS; 25 °C; Superdex 200 HR 10/300 GL; 250 μL of protein at 50 μmol L^-1 injected; 20 mmol L^-1 HEPES pH 7.5, 150 mmol L^-1 NaCl

Protein | stoichiometry N [1] | stoichiometry N [2]
B1 | 2 | –
B2 | – | 4
